In PMC10508174 (Cell reports, 2023):
Numbering of substitutions follows the chain as printed.

T1: SARNP (residues 1-210) (human, UniProt P82979 1-210)
T1 sequence (looked up): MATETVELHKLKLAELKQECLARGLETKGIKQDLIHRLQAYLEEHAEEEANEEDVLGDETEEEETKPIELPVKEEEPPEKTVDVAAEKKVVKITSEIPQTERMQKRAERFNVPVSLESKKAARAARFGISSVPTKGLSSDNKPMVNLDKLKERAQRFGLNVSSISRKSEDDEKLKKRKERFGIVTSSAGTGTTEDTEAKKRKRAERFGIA

T2: SARNP-mut2 (R153A/F157A/R177A/F181A/R203A/F207A) (human, UniProt P82979 1-210, R153A | F157A | R177A | F181A | R203A | F207A)
T2 sequence (looked up): T1 sequence (looked up) with R153A, F157A, R177A, F181A, R203A, F207A

B1: Tho1 (residues 123-178) (domain or fragment, S. cerevisiae, UniProt P40040 123-178, looked up)
chain: EEIKAKALDLLNKKLHRANKFGQDQADIDSLQRQINRVEKFGVDLNSKLAEELGLV
B2: DDX39B-CTD (residues 259-428) (domain or fragment, human, UniProt Q13838 259-428, looked up)
chain: LHGLQQYYVKLKDNEKNRKLFDLLDVLEFNQVVIFVKSVQRCIALAQLLVEQNFPAIAIHRGMPQEERLSRYQQFKDFQRRILVATNLFGRGMDIERVNIAFNYDMPEDSDTYLHRVARAGRFGTKGLAITFVSDENDAKILNDVQDRFEVNISELPDEIDISSYIEQTR

How the values were obtained:
[1] = biological target: DDX39B (residues 44-428) (human, UniProt Q13838 44-428); experiment: crystal structure
[2] = biological target: T1, SARNP (residues 1-210); experiment: MST
[3] = biological target: T2, SARNP-mut2 …; experiment: MST

Binder	binding result [1]	EC50 [2] [nM]	EC50 [3] [nM]
B1	binds		
B2		1300	3000
